In US20140178388A1 (INDUSTRIAL TECHNOLOGY RESEARCH INSTITUTE, published 2014):

B1: h145FabCSA trimer (Fab, V domains shown)
VH: EVQLQESGGGLVQPGKSLKLSCEASGFTFSGYGMHWVRQAPGRGLESVAYITSSSINIKYADAVKGRFTVSRDNAKNLLFLQMNILKSEDTAMYYCARFDWDKNYWGQGTMVTVSS
VL: DIQMTQSPSSLPASLGDRVTINCQASQDISNYLNWYQQKPGKAPKLLIYYTNKLADGVPSRFSGSGSGRDSSFTISSLESEDIGSYYCQQYYNYPWTFGPGTKVEIKR
notes: Trimeric Fab-collagen-like peptide fusion from the Superdex 200 peak 2 fraction; Expressed in NS0 cells; also called trimeric h145FabCSA
B2: hOKT3FabCSA trimer (Fab, V domains shown)
VH: QVQLVQSGGGVVQPGRSLRLSCKASGYTFTRYTMHWVRQAPGKGLEWIGYINPSRGYTNYNQKVKDRFTISRDNSKNTAFLQMDSLRPEDTGVYFCARYYDDHYCLDYWGQGTPVTVSS
VL: DIQMTQSPSSLSASVGDRVTITCSASSSVSYMNWYQQTPGKAPKRWIYDTSKLASGVPSRFSGSGSGTDYTFTISSLQPEDIATYYCQQWSSNPFTFGQGTKLQITR
notes: Trimeric Fab-collagen-like peptide fusion from the Superdex 200 peak 2 fraction; Expressed in CHO-S cells; also called trimeric hOKT3FabCSA; trivalent hOKT3FabCSA
B3: low-Fc binding anti-human CD3 antibody-hOKT3IgG-AA (antibody, V domains shown)
VH: QVQLVQSGGGVVQPGRSLRLSCKASGYTFTRYTMHWVRQAPGKGLEWIGYINPSRGYTNYNQKVKDRFTISRDNSKNTAFLQMDSLRPEDTGVYFCARYYDDHYCLDYWGQGTPVTVSS
VL: DIQMTQSPSSLSASVGDRVTITCSASSSVSYMNWYQQTPGKAPKRWIYDTSKLASGVPSRFSGSGSGTDYTFTISSLQPEDIATYYCQQWSSNPFTFGQGTKLQIT
notes: also called hOKT3IgG-AA (dimer)

How the values were obtained:
[1] = target: T1, mouse CD3 on mouse spleen T lymphocytes (mouse, UniProt P22646 22-189); test: flow cytometry (MFI) on purified mouse spleen T lymphocytes, serial dilution
T1 construct: whole, on cells; also called mouse T lymphocytes
T1 sequence (P22646 22-189): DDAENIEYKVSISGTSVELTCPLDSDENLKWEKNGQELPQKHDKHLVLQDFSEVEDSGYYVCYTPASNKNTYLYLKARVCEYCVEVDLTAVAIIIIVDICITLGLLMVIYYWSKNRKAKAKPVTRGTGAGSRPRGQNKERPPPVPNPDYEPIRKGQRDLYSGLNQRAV

[2] = target: T2, human CD3 (TCR-CD3 complex) on human T cells (human, UniProt P07766 23-207); test: flow cytometry (MFI) on purified human T lymphocytes, serial dilution
T2 construct: whole, on cells; The other subunits of the complex on the cells are not described; also called CD3ε chain; CD3(+) Jurkat T cells

Molecule	Kd [1] [nM]	fold greater binding strength than 145-2C11 [1] [fold]	Kd [2] [nM]	fold greater binding strength than hOKT3IgG-AA [2] [fold]
hamster anti-mouse CD3 antibody (145-2C11)	15			
B1	4	3.75		
B2			0.02	7.5
B3			0.15	
